The numbers were not newly measured in publication PMC3903589, which cites them from elsewhere.

Data set [1] deals with CEACAM1 (UniProt P13688). Nature of the data set: SPR. (In general: SPR reads the build-up and loss of mass on a sensor chip optically.)
In data set [2] the target is NCAM (UniProt P13591). Put plainly: SPR.

The term Kd denotes the constant that tells how readily two partners part at equilibrium. As to CEACAM1 (from UniProt P13688), in data set [1], the Kd is 7.65 µM.
Regarding NCAM (from UniProt P13591), in data set [2], the Kd is 0.025 µM.
